This is an account of results in patent US20250179180A1 (TENEOBIO, published 2025).

Numbering of substitutions follows the chain as printed. Names and notes keep the numbering of the source.

B1: mAb CD3 F2B (antibody, V domains shown)
VH: EVQLVESGGGLVQPGRSLRLSCAASGFTFDDYAMHWVRQAPGKGLEWVSGISWNSGSIGYADSVKGRFTISRDNAKNSLYLQMNSLRAEDTALYYCAKDSRGYGDYRLGGAYWGQGTLVTVSS
VL: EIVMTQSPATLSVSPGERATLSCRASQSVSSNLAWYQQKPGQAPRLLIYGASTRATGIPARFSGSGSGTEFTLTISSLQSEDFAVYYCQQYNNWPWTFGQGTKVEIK
notes: also called F2B antibody; mAb F2B
B2: SEQ ID NO 5 (antibody, V domains shown)
VH: B1 VH with R107S
VL: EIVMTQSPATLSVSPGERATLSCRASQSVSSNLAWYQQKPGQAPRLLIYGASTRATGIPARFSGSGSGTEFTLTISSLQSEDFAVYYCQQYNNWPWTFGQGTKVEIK
notes: also called family 2 anti-CD3 FlicAb
B3: SEQ ID NO 12 (antibody, V domains shown)
VH: B1 VH with A88P, D105S, R107S, L108R
VL: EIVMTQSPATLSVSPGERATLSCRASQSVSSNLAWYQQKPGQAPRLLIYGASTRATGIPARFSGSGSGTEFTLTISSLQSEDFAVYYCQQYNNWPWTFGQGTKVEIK
notes: as for B2
B4: SEQ ID NO 15 (antibody, V domains shown)
VH: B1 VH with D31N, N77K, R107S
VL: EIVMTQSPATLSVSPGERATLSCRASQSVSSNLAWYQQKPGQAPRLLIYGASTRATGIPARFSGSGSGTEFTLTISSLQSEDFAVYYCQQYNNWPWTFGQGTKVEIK
notes: as for B2
B5: SEQ ID NO 2 (antibody, V domains shown)
VH: B1 VH with Q13K, R16G
VL: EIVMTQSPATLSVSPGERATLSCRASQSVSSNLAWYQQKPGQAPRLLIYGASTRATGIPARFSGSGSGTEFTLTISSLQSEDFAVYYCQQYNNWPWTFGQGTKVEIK
notes: as for B2
B6: SEQ ID NO 10 (antibody, V domains shown)
VH: B1 VH with D31N, R107S, L108R
VL: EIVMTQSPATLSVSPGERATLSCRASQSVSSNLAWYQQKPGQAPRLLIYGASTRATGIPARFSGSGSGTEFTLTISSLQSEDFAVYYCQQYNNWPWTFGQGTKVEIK
notes: as for B2
B7: SEQ ID NO 7 (antibody, V domains shown)
VH: B1 VH with D30N, D31N, A88G, R107S, L108R
VL: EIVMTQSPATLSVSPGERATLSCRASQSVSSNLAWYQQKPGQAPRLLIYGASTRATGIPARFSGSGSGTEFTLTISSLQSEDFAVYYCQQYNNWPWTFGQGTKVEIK
notes: as for B2
B8: SEQ ID NO 3 (antibody, V domains shown)
VH: B1 VH with N77K, R107S, L108R
VL: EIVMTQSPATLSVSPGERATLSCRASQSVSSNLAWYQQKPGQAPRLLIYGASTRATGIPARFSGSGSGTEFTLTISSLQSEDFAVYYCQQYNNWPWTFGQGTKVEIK
notes: as for B2
B9: SEQ ID NO 18 (antibody, V domains shown)
VH: B1 VH with A88P
VL: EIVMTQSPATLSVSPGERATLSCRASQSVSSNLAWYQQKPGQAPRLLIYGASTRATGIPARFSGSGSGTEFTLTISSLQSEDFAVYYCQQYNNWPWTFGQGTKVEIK
notes: as for B2
B10: SEQ ID NO 9 (antibody, V domains shown)
VH: B1 VH with D31N, N77K, R107S, L108R
VL: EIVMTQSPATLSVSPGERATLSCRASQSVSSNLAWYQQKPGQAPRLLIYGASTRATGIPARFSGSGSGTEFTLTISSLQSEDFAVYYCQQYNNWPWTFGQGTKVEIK
notes: as for B2
B11: SEQ ID NO 13 (antibody, V domains shown)
VH: B1 VH with D30H, D31N, R107S
VL: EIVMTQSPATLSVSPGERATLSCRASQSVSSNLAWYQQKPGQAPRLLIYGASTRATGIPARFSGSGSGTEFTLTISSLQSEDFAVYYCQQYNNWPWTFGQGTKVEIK
notes: as for B2
B12: SEQ ID NO 4 (antibody, V domains shown)
VH: B1 VH with A88P, R107S
VL: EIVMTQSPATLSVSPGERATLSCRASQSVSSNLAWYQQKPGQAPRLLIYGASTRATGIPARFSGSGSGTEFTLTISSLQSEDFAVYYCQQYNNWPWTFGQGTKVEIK
notes: as for B2
B13: SEQ ID NO 6 (antibody, V domains shown)
VH: B1 VH with D30A, D31N, G59D, R107S, L108R
VL: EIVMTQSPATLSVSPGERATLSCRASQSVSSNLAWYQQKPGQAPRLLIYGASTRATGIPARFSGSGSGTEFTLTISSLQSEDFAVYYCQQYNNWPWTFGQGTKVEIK
notes: as for B2
B14: SEQ ID NO 8 (antibody, V domains shown)
VH: B1 VH with R16G, D30A, R107S, L108R
VL: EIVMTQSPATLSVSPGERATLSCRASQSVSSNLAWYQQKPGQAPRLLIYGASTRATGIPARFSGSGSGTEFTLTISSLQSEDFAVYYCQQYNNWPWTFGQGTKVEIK
notes: as for B2
B15: SEQ ID NO 16 (antibody, V domains shown)
VH: B1 VH with N77K
VL: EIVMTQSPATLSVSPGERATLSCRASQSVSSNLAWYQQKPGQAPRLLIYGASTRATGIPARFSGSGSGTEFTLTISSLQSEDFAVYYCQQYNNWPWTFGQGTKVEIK
notes: as for B2
B16: SEQ ID NO 11 (antibody, V domains shown)
VH: B1 VH with R107S, L108R
VL: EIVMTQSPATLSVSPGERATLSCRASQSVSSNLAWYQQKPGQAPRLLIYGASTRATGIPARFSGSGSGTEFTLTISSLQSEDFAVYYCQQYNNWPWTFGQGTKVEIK
notes: as for B2
B17: SEQ ID NO 17 (antibody, V domains shown)
VH: B1 VH with A23E
VL: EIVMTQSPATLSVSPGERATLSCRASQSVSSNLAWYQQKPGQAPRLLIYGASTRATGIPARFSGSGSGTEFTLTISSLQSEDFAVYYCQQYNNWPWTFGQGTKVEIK
notes: as for B2

T1 sequence (P07766 23-207 limits assumed, chain 1 of 2): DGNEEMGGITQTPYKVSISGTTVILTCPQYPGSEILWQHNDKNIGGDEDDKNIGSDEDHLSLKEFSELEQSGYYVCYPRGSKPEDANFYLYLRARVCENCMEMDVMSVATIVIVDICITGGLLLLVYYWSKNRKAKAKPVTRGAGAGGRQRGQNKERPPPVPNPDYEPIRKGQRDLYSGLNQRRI
T1 sequence (P04234 22-171 limits assumed, chain 2 of 2): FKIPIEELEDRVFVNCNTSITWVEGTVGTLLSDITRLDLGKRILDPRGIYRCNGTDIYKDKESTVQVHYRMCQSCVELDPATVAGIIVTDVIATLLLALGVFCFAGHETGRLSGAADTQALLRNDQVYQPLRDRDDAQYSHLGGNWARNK

The assay concerns the target T1, human CD3 (human, UniProt P07766 23-207; P04234 22-171).
T1 construct: also called CD3 on human T cells
The assay is described as follows: flow cytometry on primary human T cells. On the technique in general: Flow cytometry measures light scatter and fluorescence of single cells or particles in a stream.
With B1, the binding result is “binds”.

Regarding B2, the binding result is “binds”.

B3: the binding result is given as “binds”.

On to B4, for which the binding result is given as “binds”.

In the case of B5, the binding result is recorded as “binds”.

In the case of B6, the binding result is “binds”.

In the case of B7, the binding result is “binds”.

As to B8, the binding result was “binds”.

For B9, the binding result is “binds”.

In the case of B10, the binding result is “binds”.

Turning to B11, the binding result was “binds”.

Turning to B12, the binding result is on record as “binds”.

Regarding B13, the binding result is “binds”.

In the case of B14, the binding result was “binds”.

For the molecule B15, the binding result is “binds”.

Take B16: the binding result is “binds”.

Consider B17, for which the binding result is listed as “binds”.
